Results published in patent US20120294879A1, “CONSENSUS SEQUENCE FOR INFLUENZA A VIRUS” (priority 2009, published 2012).

Key:
[1] = system: HLA-A2, -A24, -B7, -DR2, -DR3 and -DR4 transgenic mice; type: cell-based; parameters: key to HLA allele this work (HLA restriction by ELISpot): —represents no positive ELISpot response
[2] = system: splenocytes of HLA-B7 (B*0702) transgenic mice; type: cell-based; parameters: key to B7: average IFN-γ spots forming cells per million splenocytes: — represents no positive ELISpot response
[3] = system: splenocytes of HLA-DR4 (DRB1*0401) transgenic mice; type: cell-based; parameters: key: — represents no positive ELISpot response
[4] = system: splenocytes of HLA-DR2 (DRB1*1501) transgenic mice; type: cell-based; parameters: key to DR2: average IFN-γ spots forming cells per million splenocytes: — represents no positive ELISpot response
[5] = system: splenocytes of HLA-DR3 (DRB1*0301) transgenic mice; type: cell-based; parameters: key to DR3: average IFN-γ spots forming cells per million splenocytes: — represents no positive ELISpot response
[6] = system: splenocytes of HLA-A24 (A*2402) transgenic mice; type: cell-based; parameters: key to A24: average IFN-γ spots forming cells per million splenocytes: — represents no positive ELISpot response
[7] = biological target: HLA-DR3 (HLA-DRA*0101 and -DRB1*0301), as expressed in HLA-DR3 transgenic mice (human); assay: cell-based or functional assay
[8] = biological target: HLA-DR4 (HLA-DRA*0101 and -DRB1*0401), as expressed in HLA-DR4 transgenic mice (human); assay: cell-based or functional assay

Row | Substance | IFN-γ ELISpot at 10 µg/ml peptide, splenocytes of immunized HLA transgenic mice [7] | lowest concentration of peptide giving positive ELISpot response [7] | IFN-γ ELISpot at 10 µg/ml peptide, splenocytes of immunized HLA transgenic mice [8] | lowest concentration of peptide giving positive ELISpot response [8] | other results
1 | AGALASCMGLIYNRMGA |  |  |  |  | HLA allele this work (HLA restriction by ELISpot) [1]: —
2 | FVANFSMELPSFGVSGV |  |  |  |  | HLA allele this work (HLA restriction by ELISpot) [1]: —
3 | GKGYMFESKSMKLRTQI |  |  |  |  | HLA allele this work (HLA restriction by ELISpot) [1]: DR2; B7: average IFN-γ spots forming cells per million splenocytes [2]: —; DR4: average IFN-γ spots forming cells per million splenocytes [3]: —; DR2: average IFN-γ spots forming cells per million splenocytes [4]: 52 ± 2(1) IFN-γ spots forming cells per million splenocytes; DR2: lowest concentration of peptide giving positive ELISpot response in peptide titration [4]: 52 ± 2(1) μg/ml; DR3: average IFN-γ spots forming cells per million splenocytes [5]: —; A24: average IFN-γ spots forming cells per million splenocytes [6]: —
4 | GYTMDTVNRTHQYSERG |  |  |  |  | HLA allele this work (HLA restriction by ELISpot) [1]: DR4; B7: average IFN-γ spots forming cells per million splenocytes [2]: —; DR4: average IFN-γ spots forming cells per million splenocytes [3]: 125 ± 11(0.1) IFN-γ spots forming cells per million splenocytes; DR2: average IFN-γ spots forming cells per million splenocytes [4]: —; DR3: average IFN-γ spots forming cells per million splenocytes [5]: —; A24: average IFN-γ spots forming cells per million splenocytes [6]: —
5 | KTGGPIYKRVDGKWVRE |  |  |  |  | HLA allele this work (HLA restriction by ELISpot) [1]: DR3
6 | KWMMAMKYPITADKRIT |  |  |  |  | HLA allele this work (HLA restriction by ELISpot) [1]: DR4; B7: average IFN-γ spots forming cells per million splenocytes [2]: —; DR4: average IFN-γ spots forming cells per million splenocytes [3]: 161 ± 18(0.1) IFN-γ spots forming cells per million splenocytes; DR2: average IFN-γ spots forming cells per million splenocytes [4]: —; DR3: average IFN-γ spots forming cells per million splenocytes [5]: —; A24: average IFN-γ spots forming cells per million splenocytes [6]: —
7 | LTIERMVLSAFDERRNK |  |  |  |  | HLA allele this work (HLA restriction by ELISpot) [1]: —
8 | M1 169-185 peptide of influenza virus A/New York/348/2003 (H1N1) | 120 | 0.1 µg/mL |  |  | 
9 | M1 175-191 peptide of influenza virus A/New York/348/2003 (H1N1) |  |  | 165 | 0.1 µg/mL | 
10 | M1 181-197 peptide of influenza virus A/New York/348/2003 (H1N1) |  |  | 115 | 1 µg/mL | 
11 | MDVNPTLLFLKVPAQNA |  |  |  |  | HLA allele this work (HLA restriction by ELISpot) [1]: —
12 | MSLLTEVETYVLSIVPS |  |  |  |  | HLA allele this work (HLA restriction by ELISpot) [1]: —
13 | NKMARLGKGYMFESKSM |  |  |  |  | HLA allele this work (HLA restriction by ELISpot) [1]: —
14 | NP 7-23 peptide of influenza virus A/New York/348/2003 (H1N1) |  |  | 52 | 0.1 µg/mL | 
15 | NP 37-53 peptide of influenza virus A/New York/348/2003 (H1N1) | 66 | 1 µg/mL |  |  | 
16 | NP 73-89 peptide of influenza virus A/New York/348/2003 (H1N1) |  |  | 121 | 0.1 µg/mL | 
17 | NP 103-119 peptide of influenza virus A/New York/348/2003 (H1N1) | 614 | 0.1 µg/mL |  |  | 
18 | NP 109-125 peptide of influenza virus A/New York/348/2003 (H1N1) | 501 | 0.1 µg/mL |  |  | 
19 | NP 408-424 peptide of influenza virus A/New York/348/2003 (H1N1) | 41 | 10 µg/mL |  |  | 
20 | PA 126-142 peptide of influenza virus A/New York/348/2003 (H1N1) |  |  | 37 | 0.1 µg/mL | 
21 | PA 132-148 peptide of influenza virus A/New York/348/2003 (H1N1) |  |  | 41 | 0.1 µg/mL | 
22 | PA 558-574 peptide of influenza virus A/New York/348/2003 (H1N1) |  |  | 114 | 0.1 µg/mL | 
23 | PB1 31-47 peptide of influenza virus A/New York/348/2003 (H1N1) |  |  | 106 | 0.1 µg/mL | 

Row | Substance | IFN-γ ELISpot at 10 µg/ml peptide, splenocytes of immunized HLA transgenic mice [7] | lowest concentration of peptide giving positive ELISpot response [7] | IFN-γ ELISpot at 10 µg/ml peptide, splenocytes of immunized HLA transgenic mice [8] | lowest concentration of peptide giving positive ELISpot response [8] | other results
24 | PB1 37-53 peptide of influenza virus A/New York/348/2003 (H1N1) |  |  | 125 | 0.1 µg/mL | 
25 | PB1 120-136 peptide of influenza virus A/New York/348/2003 (H1N1) | 142 | 0.1 µg/mL |  |  | 
26 | PB1 126-142 peptide of influenza virus A/New York/348/2003 (H1N1) | 78 | 0.1 µg/mL |  |  | 
27 | PB1 340-356 peptide of influenza virus A/New York/348/2003 (H1N1) | 175 | 0.1 µg/mL |  |  | 
28 | PB1 471-487 peptide of influenza virus A/New York/348/2003 (H1N1) | 116 | 0.1 µg/mL |  |  | 
29 | PB1 507-523 peptide of influenza virus A/New York/348/2003 (H1N1) |  |  | 274 | 0.1 µg/mL | 
30 | PB1 554-570 peptide of influenza virus A/New York/348/2003 (H1N1) | 166 | 0.1 µg/mL | 76 | 0.1 µg/mL | 
31 | PB1 650-666 peptide of influenza virus A/New York/348/2003 (H1N1) | 142 | 0.1 µg/mL | 41 | 0.1 µg/mL | 
32 | PB1 656-672 peptide of influenza virus A/New York/348/2003 (H1N1) |  |  | 59 | 0.1 µg/mL | 
33 | PB1 680-696 peptide of influenza virus A/New York/348/2003 (H1N1) | 181 |  |  |  | 
34 | PB2 42-58 peptide of influenza virus A/New York/348/2003 (H1N1) |  |  | 166 | 0.1 µg/mL | 
35 | PB2 48-64 peptide of influenza virus A/New York/348/2003 (H1N1) |  |  | 161 | 0.1 µg/mL | 
36 | PB2 54-70 peptide of influenza virus A/New York/348/2003 (H1N1) | 499 | 0.1 µg/mL |  |  | 
37 | PB2 126-142 peptide of influenza virus A/New York/348/2003 (H1N1) |  |  | 316 | 0.1 µg/mL | 
38 | PB2 132-148 peptide of influenza virus A/New York/348/2003 (H1N1) |  |  | 311 | 0.1 µg/mL | 
39 | PB2 256-272 peptide of influenza virus A/New York/348/2003 (H1N1) | 169 | 0.1 µg/mL |  |  | 
40 | PB2 369-385 peptide of influenza virus A/New York/348/2003 (H1N1) |  |  | 54 | 0.1 µg/mL | 
41 | PB2 434-450 peptide of influenza virus A/New York/348/2003 (H1N1) | 444 | 0.1 µg/mL |  |  | 
42 | PB2 458-474 peptide of influenza virus A/New York/348/2003 (H1N1) |  |  | 238 | 0.1 µg/mL | 
43 | PB2 464-480 peptide of influenza virus A/New York/348/2003 (H1N1) | 324 | 0.1 µg/mL |  |  | 
44 | TEKLTITYSSSMMWEIN |  |  |  |  | B7: average IFN-γ spots forming cells per million splenocytes [2]: —; DR4: average IFN-γ spots forming cells per million splenocytes [3]: —; DR2: average IFN-γ spots forming cells per million splenocytes [4]: 151 ± 67(0.1) IFN-γ spots forming cells per million splenocytes; DR2: lowest concentration of peptide giving positive ELISpot response in peptide titration [4]: 151 ± 67(0.1) μg/ml; DR3: average IFN-γ spots forming cells per million splenocytes [5]: —; A24: average IFN-γ spots forming cells per million splenocytes [6]: —
45 | TQIQTRRSFEIKKLWDQ |  |  |  |  | HLA allele this work (HLA restriction by ELISpot) [1]: —
